Experimental data reported in the DeepSol protein solubility set.

test: soluble on expression in E. coli; label from the status in PepcDB or PDB records

Sequence	soluble on expression in E. coli
AIATLLDWMNVCSVEIPKRIIAKHFSACQHTNQEVFSLDDSLAGLDECLHCEDSQQNHRKVSPGQTLRIVMIGKTGVGKSAVGNTILNREVFESKPSANSITQSCRKASVYDTREIYVIDTPGILDTSKEKDIIKREIVKCIKVSAPGPHAFLLVIQIGRFTAEEQRAVQALQELFGEDASNYMIVLFTHGDLLKGQTIDQYVREGHIELRRVIQSCGGRYAVFNNTMKDRTQVKTLIDKIDQMVAVNGGECYTQEMFREAEEKIRQQKEKREIAELQEYQFSFLGILENRVTLFQRILLEGYREQFAIESGIYK	soluble
HEHNISVTGGTDKIQYYLSANYLGQDGELRIGDEYSNRYTASAKINAQLSKIVSVGFNTRFIRSDYVQPTHLNESFFAEIGRQCWPTKPLYDPNGILYDDHVLQMQNGGEKQERNTWLYQQLNITVEPIKGWRLIGDLSYRYNTQYSHWDYLTVHQTGVDGKTKGNTWNNDSQVHEGTYASDYFNVNLYTDYAKTFAKSHNMKVLFGFQAEQNNYKDIAAEKLGVIYPGKPTINTSTGMDSNNQKVAPNVAGGHNRWATAGFFGRLNYDYLEKYLLEVNLRYDGSSRFRSDSRWGFFPSASVGWNIAREKFFLPVSKVVNTFKVRASYGSLGNQNTSSLYPTYSTIGTGTGSWIIDGTLANIAWAPSLVSYNLSWEKIRTWNAGVDFGLFNNRLTGSFDYYIRKTDDMVGPSEKLPVVLGTAVPSSNNTNLKTFGWELELMWKDRLNNGLNYSARFTLADSRTKITRYSNPSGLIDGFYAGKYVGEIWGYETIGIAQSDQEMAEHIGRLINGGQSNLGQDWKAGDIMYKDLNEDGKIDAGSRTLQDHGDLKRIGNSTPRYNVGLELAADWKGFDIRMFWQGTLKRDYFQGSYYFWGANGRQGPWFSTALKGHDDYFRNDEASPLGTNLNSYYPRPLFNTDKNQQSQTKYLQDASYLRLKNLQIGYSLPHNIVQKMGMQHLRIFASGENLFTITSLIDFFDPESIEGGSWGHGNVYPLSRTFSFGLNVTF	not soluble
VIVYGDYNNDGNVDALDFAGLKKYIMAADHAYVKNLDVNLDNEVNSTDLAILKKYLLGMVSKLPSN	soluble
GSHMDTSLAEEVQQTMATLAPNRFFFMSPYRSFTTSGCFARFDEPAVNGDSPDSPFQQKLAALFADAKAQGIKNPVMVGAIPFDPRQPSSLYIPESWQSFSRQEKQASARRFTRSQSLNVVERQAIPEQTTFEQMVARAAALTATPQVDKVVLSRLIDITTDAAIDSGVLLERLIAQNPVSYNFHVPLADGGVLLGASPELLLRKDGERFSSIPLAGSARRQPDEVLDREAGNRLLASEKDRHEHELVTQAMKEVLRERSSELHVPSSPQLITTPTLWHLATPFEGKANSQENALTLACLLHPTPALSGFPHQAATQVIAELEPFDRELFGGIVGWCDSEGNGEWVVTIRCAKLRENQVRLFAGAGIVPASSPLGEWRETGVKLSTMLNVFGLH	soluble
MMIKVGAAINGTDSPKAMKREHDNDDGDRTGRHKRPKTDGFTEAIQQGKFEVRLLVSSKSAGAIIGKGGENIKRLRAEFNAHVQVPDSNTPERVCTVTADEKTVLNILKDVLPRLEDNFSERDPCEVRMLVHQSHAGALIGRNGSKIKELREKCSARLKIFTGCAPGSTDRVLITSGEQKNVLGIIEEVMKELKEIPIKGSATPYLPAFNYDPSNISDYGGFPGNMPAGGPPNNRGPAPQRGGQGPPGGPRSYGGAITQGGGQRSFEAGDFQQFRGGPGPVPGYAMSAPGYPPQQGQFGAPNNAGYGYGPGGGGPVTTAQVTIPSDLGGTIIGRGGERIARIRQESGAQITLEQSNGQPERIITIKGTEQQIHSAQYLLQQCVRNSTQGRERFGGSV	not soluble
GSHMASMTGGQQMGRGSMTQDEMKKAAGWAALKYVEKGSIVGVGTGSTVNHFIDALGTMSEEIKGAVSSSVASTEKLEALGIKIFDCNEVASLDIYVDGADEINADREMIKGGGAALTREKIVAAIADKFICIVDGTKAVDVLGTFPLPVEVIPMARSYVARQLVKLGGDPCYREGVITDNGNVILDVYGMKITNPKQLEDQINAIPGVVTVGLFAHRGADVVITGTPEGAKIEE	soluble
GAMATSESPDAYTESFGAHTIVKPAGPPRVGQPSWNPQRASSMPVNRYRPFAEEVEPIRLRNRTWPDRVIDRAPLWCAVDLRDGNQALIDPMSPARKRRMFDLLVRMGYKEIEVGFPSASQTDFDFVREIIEQGAIPDDVTIQVLTQCRPELIERTFQACSGAPRAIVHFYNSTSILQRRVVFRANRAEVQAIATDGARKCVEQAAKYPGTQWRFEYSPESYTGTELEYAKQVCDAVGEVIAPTPERPIIFNLPATVEMTTPNVYADSIEWMSRNLANRESVILSLHPHNDRGTAVAAAELGFAAGADRIEGCLFGNGERTGNVCLVTLGLNLFSRGVDPQIDFSNIDEIRRTVEYCNQLPVHERHPYGGDLVYTAFSGSHQDAINKGLDAMKLDADAADCDVDDMLWQVPYLPIDPRDVGRTYEAVIRVNSQSGKGGVAYIMKTDHGLSLPRRLQIEFSQVIQKIAEGTAGEGGEVSPKEMWDAFAEEYLAPVRPLERIRQHVDAADDDGGTTSITATVKINGVETEISGSGNGPLAAFVHALADVGFDVAVLDYYEHAMSAGDDAQAAAYVEASVTIASPAQPGEAGRHASDPVTIASPAQPGEAGRHASDPVTSKTVWGVGIAPSITTASLRAVVSAVNRAAR	soluble
MSLSIFEHFQARYEAAKDEELSIQDFLALCKENKSAYANAAERLLLAIGEPEMIDTSKHSRLSRIFSNRVIARYKTFEDFYGMEEAIEQIVAYLKHAAQGLEERKQILYLLGPVGGGKSSLAEKLKALMQQMPIYVLSANGQRSPVNDHPFCLFDVNEDGELLKQEYGIDRRYLRSIMSPWAAKRLHEFGGDITKFKVVKVRPSILDQIAVAKTEPGDENNQDISSLVGKVDIRKLEHFSQDDPDAYSYSGALCRANQGLMEFVEMFKAPIKVLHPLLTATQEGNYNGTEGLSALPFDGMILAHSNESEWQTFRNNKNNEAFLDRVYIVKVPYCLRVSEEVKIYQKLLDHSELSKAPCAPSTLDLLAQFSVLSRLKVPENSSLFSKMRVYDGETLKDTDPKAKSYQEYRDYAGVDEGMSGLSTRFAFKILSRVFNFDHSEVAANPVHLFYVIEQQVEREQFPQETADRYNEFLKGYLIPRYVEFIGKEIQTAYLESYSEYGQNIFDRYVTYADFWIQDQEYRDPETGQLFDRSALNSELEKIEKTAGISNPKDFRNEIVNFVLRARANNNGQNPVWTSYEKLRTVIEKKMFSNTEDLLPVISFNAKTSSDDQKKHDDFVARMMEKGYTEKQVRLLSEWYLRVRKSSEGHHHHHH	soluble
MQAQTVVHPSIKTKTTFAIVVDQKSYDEAKSEIDAYRTSIEKEGLGTYLLIDDWKRPEPIREQLVKLHENEKTPLEGCVFIGDIPIPMIRDAHHLSSAFKRSPKANWQKSSVPSDRYYDDFGLKFDYIKQDSLIPDYHYMTLRADSKQYISPDIYSARIRPLHLEGENRYQMLRDYLKKAVAEKAKQNAFDQLTMARGHGYNSEDPLAWSGEQIALREQLPQIFKSGNTVKFYDFNMRYPMKPLYLNEIQREGLDVMLFHHHGGPTMQYINGYENGSGINLSIENAKIFLRSKVPSYAKKHGREAAIKEYAKQYGVPESWCAEAFDEEKIKSDSIVNRNMDIYTEDIRLLTPNARFILFDACFNGSFHLDDNIVGSYIFNKGKTIATMGCTVNTIQDKWPDEFLGLLAAGMRIGQFTRFTCFLENHLIGDPTFHFTNNAGLDMDINQALVAQEGNVTFWKKQLNSPMADMQAMALRQLSMANYSGLVELLKKSYHESNYFVVRLEALRLLALNYPTEVADVLQTAMNDSYELIRRYAVEYVEKNCNPELLPAWIESYLLRGHENRHRFRIFSAINTFDHDMALNELKKQAADWSFYDSSYVNELLEYLPRQKKGLERDFALIDSPESTTKQIQSEISRFRNKPIAKAIEPLLNIIKNESQEEELRILAAETLGWYNLYYNKADIIKELNTFRTSNQKLMNEVTKTINRLKSQNR	not soluble
GTKQEKTILNMARFIRSQALTILEKANELDADEIADIAESIHDHADEIYRSALARFGDDGENL	soluble
MGSDKIHHHHHHMNKDLFISSFDHRVYKKQPLAERMRPHSLNDVTGQSHLVGEKGLLSRIVAAGSIGSMIFWGPPGTGKTTVARLLALETNFAFEQVSAIFTGVAELKKIFESAQARFMSGSQTVLFVDEIHRFNRAQQDSFLPVMEDGTVILIGATTENPSFELNAALLSRARVLTFLPHDNESLGMLLKRAEALEEKTLPLDDNARDVLIDMSDGDARAALTLAEEVWSVARPGEIFDAAALRKIVQRRAPIYDKGRDGHYNLISALHKSVRGSDPDAALYYLARMFDAGEDPLYIGRRLVRMAVEDVGLADPQALVICNAAKDAYDYLGSPEGELALAQACLYVATAPKSNATYLAYKAAMRCARKNGSLPPPKHILNAPTKFMKEEGYGHGYCYDHDEPDAFSGQEYFPEKLGRQSYYQPVERGFEREIAKRLEWWKQLRKKRANQK	not soluble
MAAISLAKVEETAPALVSLYKSAGVSLHKHGLDGQRAAVYLVVDYSGSMRPYYKDGSVQALTDRVLGLSAHLDDDGTVPVVFFSTDIDAVTDIALADHQGHIELIVAGLGHMGKTSYHLAMDAVIDHYLDSGSKDPAFVVFQTDGGPTSKPAAERYLCKAAELPLFWQFIGFGDPGSRQFEFLRKLDELAVPHKRVVDNAGFFHAGTDPRKVSDGELYDRLVGEFPQWLAAARTHGIVRLEHHHHHH	not soluble
MNLSTKQKQHLKGLAHPLKPVVLLGSNGLTEGVLAEIEQALEHHELIKVKIATEDRETKTLIVEAIVRETGACNVQVIGKTLVLYRPTKERKISLPR	not soluble
MAHHHHHHMMRIPPLVVCGPSGVGKGTLIKRLLGEFPSLFRFSISCTTRKKREKEMDGVDYYFVDKEDFEQKIKEEQFLEYDNYANNFYGTLKSEYDIAAGENKICLLEMNINGVKQLKESKHIEDGIYIFVKPPSIEILLKRLKNRNTENPEEIKKRMQELTREMDEADKVGFNYIIVNDDLARTYGELRKYLLGSYPQLGGA	soluble
MSSAFLADRRLIRVSGTGAEEFLNNLITADIENLPEGETRASALLTPQGKILFDFLIWRDGRDYLVETGAAEQDALLRRLTMYKLRAPVELKAETVEGIGVFWGNSVTEAGVRDGRFAKAGVDLRRVPGASASGEAAAYEALRVEHGIAESGRDYALQDAFPHDVLMDVNDGVSFKKGCFVGQEVVSRMKHRGTARRRVVTVSADGTLPASGTEITANGKPVGALGTVYGNRALAIVRTDRVADALAAGTPLLADNVAVSVALPAWSGLSFPAADPAARAED	not soluble
MSLGQGIPANPADGAGEWGDYRDCDSPWKAVEDAVRAAARQHPDAAYVYYTGDIIDHGVWETTVAGNIVSMTRTYQLFRDVFGSKPVYNVLGNHENNPTNVFAPSYITQSEFSAKWLYDFSADQWSTWLPTASQQTIRQGGFYTVLVRPGFRIIGMNNNDAYTFNWWILYDPAYLQAQLQWVHDTLLQAEAAGEKVHILAHIPIGAGTSYRTWARQYRRILDRFWDVITAHFHGHTHADEFNVFYSLANPQHAISAGFNGGGTVPFSNYNPNYVVYYVNPQTYDVTDFESWYFSLTEANQNPNREGHHHHHH	not soluble
AAYEAELLGRVGLMSHLTRRLHESAKLNPHRVIYAACENPSVLKAAVSARAHGIARPIMLGDEKQIRDFAAELDLSLEGIEIVNYRSDEEKARRHHYARVFAEQNWRRGGNHTEALDKMFDPNYFGMMMVRLGDADAMITGIYSKHSYLAEVAKQTVGLQEGVGHFATMHMVSLKNGPLFLADTLINHNLSAEALVDIAVMAYEKAHCFGVKPVLAIVGFSDFGADSDADSTVEAAKAVAILHEKYPYILVDGEMRVSLALHAEKRDKQYPQNKIKGRNANVLIFPRLSAANACYQLLREADDAEEVLGPIQIGLAKPVYFADHDATVSDILNITAMAVLDSHACLI	soluble
